Test system: iBBB (human iPSC-derived BBB)
Test: Aβ(1–40) / Aβ(1–42) transcytosis and paracellular permeability assay, iBBB (transwell)
Conditions: Cy3-labeled Aβ(1–40) added to the abluminal side, 20 nM, 37 °C, 1 h, fluorescence
Protocol: For iBBBs, iPSC-derived brain endothelial cells (iECs) were dissociated by Accutase, resuspended with hECSR1 supplemented with 10 μM Y27632 and then seeded onto a 24-well Matrigel-coated Transwell at a density of 10^6 cells per cm^2 to complete a confluent monolayer for 24 h. Afterwards, the iPCs, iASs or MEFs were seeded on top of the iEC monolayer culture at a density of 5 × 10^4 cells per cm^2. The iBBBs were further cultured for 12 or 14 days.
For analysis of bottom (apical) to top (basolateral) permeability, 500 μl of medium containing the fluorescent proteins was added to the lower chamber; for analysis of top to bottom permeability, 100 μl medium of the fluorescent proteins was added to the top chamber. Permeability assays were conducted at 37 °C for 1 h. Media from the bottom chamber or the top transwell insert were collected and analyzed by a fluorescence plate reader (Molecular Devices). The rationale for using the indicated final concentrations for each protein was that the levels of diffused or transcytosed proteins were within a detectable range via fluorescence.

Substance: Aβ(1-40): Cy3-labeled amyloid beta (1–40) peptide used as fluorescent permeant at 20 nM in the BBB models
- increase of permeability in WT iBBB compared to iECs co-cultured with MEFs: 12%

From paper PMC10733300, “ANKS1A regulates LDL receptor-related protein 1 (LRP1)-mediated cerebrovascular clearance in brain endothelial cells” (Nature Communications, 2023)
